Experimental data published in PMC9002095 (2022).

Legend:
[1] = target: human CD47 (human, UniProt Q08722 19-323); experiment: SPR
[2] = target: BSA (bovine, UniProt P02769 25-607); experiment: ELISA
Chain of BSA (P02769 25-607): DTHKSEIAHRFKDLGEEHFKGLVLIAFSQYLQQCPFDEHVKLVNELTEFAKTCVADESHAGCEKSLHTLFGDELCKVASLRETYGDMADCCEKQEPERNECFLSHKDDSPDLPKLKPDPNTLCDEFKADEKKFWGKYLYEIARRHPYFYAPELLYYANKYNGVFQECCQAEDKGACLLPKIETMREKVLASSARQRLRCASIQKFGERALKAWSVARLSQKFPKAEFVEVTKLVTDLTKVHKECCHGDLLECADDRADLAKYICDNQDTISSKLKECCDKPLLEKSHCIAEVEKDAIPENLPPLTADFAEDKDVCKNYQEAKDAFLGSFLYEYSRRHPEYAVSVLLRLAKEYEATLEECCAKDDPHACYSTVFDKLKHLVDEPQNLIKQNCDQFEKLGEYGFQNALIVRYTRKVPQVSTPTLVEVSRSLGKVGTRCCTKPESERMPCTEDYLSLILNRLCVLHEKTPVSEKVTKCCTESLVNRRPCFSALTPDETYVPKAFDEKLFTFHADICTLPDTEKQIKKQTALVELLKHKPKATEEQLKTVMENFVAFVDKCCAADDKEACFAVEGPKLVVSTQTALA

Chain of human CD47 (Q08722 19-323): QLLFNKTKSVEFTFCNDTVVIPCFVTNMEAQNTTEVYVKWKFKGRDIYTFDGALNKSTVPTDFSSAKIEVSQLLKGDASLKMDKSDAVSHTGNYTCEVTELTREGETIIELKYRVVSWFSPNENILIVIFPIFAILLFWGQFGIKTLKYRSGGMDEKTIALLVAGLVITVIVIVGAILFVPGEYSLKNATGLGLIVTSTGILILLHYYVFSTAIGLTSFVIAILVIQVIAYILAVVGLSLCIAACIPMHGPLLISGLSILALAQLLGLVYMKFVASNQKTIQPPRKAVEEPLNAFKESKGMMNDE

B1: TKKTLRT–SIRPαFc conjugate (Fc fusion)
chain 1: EEELQVIQPDKSVLVAAGETATLRCTATSLIPVGPIQWFRGAGPGRELIYNQKEGHFPRVTTVSDLTKRNNMDFSIRIGNITPADAGTYYCVKFRKGSPDDVEFKSG
chain 2: TKKTLRTC
modifications: free amino groups joined through Sulfo-SMCC to the cysteine of the peptide TKKTLRTC; one or two peptides on one SIRPαFc (MALDI-TOF-MS); sites not told | sulfhydryl of the C-terminal cysteine joined to the maleimide group of Sulfo-SMCC
koff [1]: 0.00958 s⁻¹ | Kd [2]: 56.8 nM

B2: human SIRPαFc fusion protein (Fc fusion)
chain: EEELQVIQPDKSVLVAAGETATLRCTATSLIPVGPIQWFRGAGPGRELIYNQKEGHFPRVTTVSDLTKRNNMDFSIRIGNITPADAGTYYCVKFRKGSPDDVEFKSG
koff [1]: 0.00727 s⁻¹ | Kd [2]: 4.25 nM
